Results: paper PMC8448839

Biological target: TOR complex 1 (TORC1) in lysate of FLAG-Tor1 expressing yeast cells (TS269), P35169;P38873
Assay: pull-down (GST) from yeast cell lysate, western blot quantified
Conditions: chain shown with the change, read off a plot, scale: FLAG-Tor1 / GST-Pib2
[1] = without glutamine, parent: est. 1.0

Row | Binder | response (25 mM Gln, parent: est. 6.2) | response [1]
1 | GST-Pib2(304-635), P53191 V626A (protein) LPQPASSTNLNFNSNKHKSNVRQISNPKKPLYIPAVLRKVSETNITNDDLLNATLSSYYKKASNLEHGFNPSKSQSASVQNANNLRIISSQSSVQSNTSSILESYKNKISSYLFPNSIPNSDRINLIPTISNRNSARVNPPTKDHWIPDSKRNSCRYCHKPFTLWERKHHCRHCGDIFCQDHLRHWLYLDSQANFIMINELNNGGINGGGTLCKICDDCLVEYENLSTTNHNANTNEDNINVEEGEDDDNDNRKKLRNYYKNRQMNALFRPKKGGSSQEHATVDRDTTTPIQVKSNDEEADNENTGGEQEEGNDVLGSVIGSAPANWNWSSF | 2.7 | 0.6
2 | GST-Pib2(304-635), P53191 A628T (protein) LPQPASSTNLNFNSNKHKSNVRQISNPKKPLYIPAVLRKVSETNITNDDLLNATLSSYYKKASNLEHGFNPSKSQSASVQNANNLRIISSQSSVQSNTSSILESYKNKISSYLFPNSIPNSDRINLIPTISNRNSARVNPPTKDHWIPDSKRNSCRYCHKPFTLWERKHHCRHCGDIFCQDHLRHWLYLDSQANFIMINELNNGGINGGGTLCKICDDCLVEYENLSTTNHNANTNEDNINVEEGEDDDNDNRKKLRNYYKNRQMNALFRPKKGGSSQEHATVDRDTTTPIQVKSNDEEADNENTGGEQEEGNDVLGSVIGSVPTNWNWSSF | 3.5 | 0.6
